T1: his-tagged B7-H3 (UniProt Q5ZPR3-2 29-245, limits assumed)
T1 construct: also called CD276; not shown: His tag
T1 sequence (looked up): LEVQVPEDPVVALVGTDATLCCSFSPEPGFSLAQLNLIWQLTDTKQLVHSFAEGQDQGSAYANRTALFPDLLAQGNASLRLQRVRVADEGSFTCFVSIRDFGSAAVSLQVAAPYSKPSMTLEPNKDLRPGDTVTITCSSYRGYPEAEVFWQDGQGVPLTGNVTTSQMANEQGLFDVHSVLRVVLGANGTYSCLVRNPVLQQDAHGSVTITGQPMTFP


Target: T1, his-tagged B7-H3
Assay: SPR, Carterra LSA; binder captured by anti-human Fc, his-tagged B7-H3 injected
Experimental: Binding affinities of anti-B7-H3 antibodies to B7-H3 were measured by Surface Plasmon Resonance (SPR) on a Carterra LSA instrument. Goat anti-human Fc antibody was amine coupled to a HC30M chip. ScFv-Fc supernatants were diluted 30-fold with HBSTE and were captured by the anti-human Fc coupled HC30M chip. A 1:2 dilution series of his-tagged B7-H3, starting at 400 nM, was injected onto the chip for binding. Data was analyzed using the Carterra TM Kinetics software.

Binder	Kd	kon	koff
40511p1.1.D6 scFv-Fc (scFv, V domains shown, Tested as scFv-Fc supernatant) VH: DVQLVESGGGVVRPGESLTLSCAASGFTINSYAVSWVRQAPGEGLEWVSGISGSGVRYYADSVKGRFTISRDNSNNTLYLQMNSLRAEDTAVYYCARSNKVTWNNFFDYWGLGTLVTVSS VL: EVVLTQSPGTLTLSPGERATLSCRASRSILTSLAWYQQKPGQAPRLLIYNTVTRATGIPARFSGSGSGTEFTLTINSLQSEDFAVYYCQQYYDWPPLTFGGGTKVEIK	0.325 nM	669000 M⁻¹ s⁻¹	
40511p1.1.C4 scFv-Fc (scFv, V domains shown) VH: DVQLVESGGGVVRPGESLRLSCAASGFTFSSYAMSWVRQAPGEGLEWVSRISGSGNSTDYAESVKGRFTISRDSSKNTLYLQMNSLRAEDTAVYYCAKHSTVSFFDYWGLGTLVTVSS VL: EIVLTQSPGTLSLSPGERATLSCRASQSISSRYLAWYQQKPGQAPRLLIYGASRRATGIPARFSGSGSGTEFTLTISSLQSEDFAVYYCQQYGHWPPLTFGGGTKVEIK	17.1 nM	76900 M⁻¹ s⁻¹	
40511p1.1.D8 scFv-Fc (scFv, V domains shown) VH: DVQLVESGGGVVRPGESLRLSCAASGFTFSSYAMSWVRQAPGEGLEWVSSISGSGGSTLYADSVKGRFTISRDSSNNSLYLQMNSLRAEDTAVYYCAKARNNFFDYWGLGTLVTVSS VL: EIVLTQSPGTLTLSPGERATLSCRASRSILTSLAWYQQRPGQAPRLLIYGANSRATGIPDRFSGSGSGTEFTLTISSLQSEDFAVYYCQQYYDWLTITFGGGTKVEIK	71.8 nM	340000 M⁻¹ s⁻¹	0.02 s⁻¹
40511p1.2.B5 scFv-Fc (scFv, V domains shown) VH: DVQLVESGGGVVRPGESLRLSCAASGFTFSSYAMSWVRQAPGEGLEWVSSISGSGGSTLYADSVKGRFTISRDSSNNSLYLQMNSLRAEDTAVYYCAKARNNFFDYWGLGTLVTVSS VL: EIVLTQSPGTLTLSPGERATLSCRASRSILTSLAWYQQRPGQTPRLLIYGANSRATGIPDRFSGSGSGTEFTLTISSLQSEDFAVYYCQQYYDWLTITFGGGTKVEIK	61.2 nM	795000 M⁻¹ s⁻¹	0.05 s⁻¹
40511p1.1.C3 scFv-Fc (scFv, V domains shown) VH: DVQLVESGGGVVRPGGSLRLSCAASGFTFRIYGMTWVRQAPGEGLEWVSTISGSGNSTYYADSVKGRFTISRDNSKNTLYLQMNSLRAEDTAVYYCAKTWNNYRFFDYWGLGTLVTVSS VL: EIVLTQSPGTLSLSPGERATLSCRASQPINSSYLAWYQQKPGQAPRLLIYAASSRATDIPDRFSGSGSGTDFTLTISSLQSEDFAVYYCQQYYDWPQFTFGGGTKVEIK	47.7 nM	406000 M⁻¹ s⁻¹	0.02 s⁻¹
40511p1.1.D3 scFv-Fc (scFv, V domains shown) VH: DVQLVESGGGVVRPGGSLRLSCAASGFTFRSYGMNWVRQAPGEGLEWVSRMSSGGGAYYADSVKGRFTISRDNSKNTLYLQMNSLRAEDTAVYYCARNSRDFFFDQWGLGTLVTVSS VL: ETVLTQSPGTLSLSPGERATLSCRASQSVNSKLAWYQQKPGQAPRLLIYGASSRATGIPARFSGSGSGTEFTLTISSLQTEDFAVYYCQQYSDWPPLTFGGGTKVEIK	321 nM	109000 M⁻¹ s⁻¹	0.04 s⁻¹
40511p1.1.A1 scFv-Fc (scFv, V domains shown, Tested as scFv-Fc supernatant) VH: DVQLVESGGGVVRPGESLRLSCAASGFTFSNYAMNWVRQAPGEGLEWVSRINYKGYNITYYADSVKGRFTISRDNSKNTLYLQMNSLRAEDTAVYYCAKSGSNSNNFFDYWGLGTLVTVSS VL: EIVLTQSPGTLSVSPGERATLSCRASQSVNSKLAWYQQRPGQAPRLLIYDASSRATGIPDRFSGSGSGTDFTLTISRLEPEDFAVYYCQQYKNWPPLTFGGGTKVEIK	463 nM	93000 M⁻¹ s⁻¹	0.04 s⁻¹
40511p1.2.A12 scFv-Fc (scFv, V domains shown, Tested as scFv-Fc supernatant; also called 40511p1.2.Al2) VH: DVQLVESGGGVVRPGESLRLSCAASGFTFSSYAESWVRQAPGEGLEWVSIISGSGGNTFYADSVKGRFTISRDNSKNTLYLQMNSLRAEDTAVYYCARFAYGFFDYWGLGTLVTVSS VL: EIVLTQSPGTLSVSPGERATLSCRASQTVGSKLAWYQQKPGQPPSLLIYDASTRATGIPDRFSGSGSGTDFTLTISSLQSEDFAVYYCQQYRNWPPLTFGGGTKVEIK	25.1 nM	1.32e+06 M⁻¹ s⁻¹	0.03 s⁻¹
40511p1.1.H5 scFv-Fc (scFv, V domains shown, Tested as scFv-Fc supernatant) VH: DVQLVESGGGVVRPGESLRLSCAASGFTFSNYAMNWVRQAPGEGLEWVSRINYKGYNITYYADSVKGRFTISRDNSKNTLYLQMNSLRAEDTAVYYCAKSGSNSNNFFDYWGLGTLVTVSS VL: EIVLTQSPGTLSLSPGERATLSCRASQSIRSDLAWYQQKPGQAPRLLIYGAASRATGIPARFSGSGSGTEFTLTISSLQSGDFAVYYCQQYNSWPPLTFGGGTKVEIK	123 nM	10300 M⁻¹ s⁻¹	
40511p1.1.G1 scFv-Fc (scFv, V domains shown, Tested as scFv-Fc supernatant) VH: DVQLVESGGGVVRPGESLRLSCAASGFTFSSYAESWVRQAPGEGLEWVSIISGSGGNTFYADSVKGRFTISRDNSKNTLYLQMNSLRAEDTAVYYCARFAYGFFDYWGLGTLVTVSS VL: EIVLTQSPGTLSVSPGEGATLSCRASQTVGSKLAWYQQKPGQPPSLLIYDASTRATGIPDRFSGSGSGTDFTLTISSLQSEDFAVYYCQQYRNWPPLTFGGGTKVEIK	54.4 nM	458000 M⁻¹ s⁻¹	0.02 s⁻¹
40511p1.2.A4 scFv-Fc (scFv, V domains shown, Tested as scFv-Fc supernatant) VH: DVQLVESGGGVVRPGESLRLSCAASGFTFSSYAESWVRQAPGEGLEWVSIISGSGGNTFYADSVKGRFTISRDNSKNTLYLQMNSLRAEDTAVYYCARFAYGFFDYWGLGTLVTVSS VL: EIVLTQSPGTLSVSPGERATLSCRASQTVGSKLAWYQQKPGQAPRLLIYDASTRATDIPDRFSGSGSGTDFTLTISSLQSEDFAVYYCQQYRNWPPLTFGGGTKVEIK	52 nM	768000 M⁻¹ s⁻¹	0.04 s⁻¹
40579p1.D8 scFv-Fc (scFv, V domains shown, Tested as scFv-Fc supernatant) VH: EVQLLESGGGLVQPGGSLRLSCAASGFTFSDYYMSWVRQAPGKGLEWVSSISISYGGTTYYADSVKGRFTISRDNSKNTLYLQMNSLRAEDTAVYYCARDRSPYQCRSMDVWGQGTTVTVSS VL: EIVLTQSPGTLSLSPGERATLSCRASQSIRSDLAWYQQKPGQAPRLLIYNTVTRATGVPDRFSGSGSGTEFTLTISSLQSEDFAVYYCQQYNSWPPLTFGGGTKVEIK	44.2 nM	25700 M⁻¹ s⁻¹	

The remaining lines, values ahead:

Kd	kon	koff	Binder
0.759 nM	494000 M⁻¹ s⁻¹		40511p1.1.G3 scFv-Fc (scFv, V domains shown, Tested as scFv-Fc supernatant) VH: DVQLVESGGGVVRPGESLTLSCAASGFTINSYAVSWVRQAPGEGLEWVSGISGSGVRYYADSVKGRFTISRDDSNNTLYLQMNSLRAEDTAVYYCARSNKVTWNNFFDYWGLGTLVTVSS VL: EVVLTQSPGTLTLSPGERATLSCRASRSILTSLAWYQQKPGQAPRLLIYNTVTRATGIPARFSGSGSGTEFTLTINSLQSEDFAVYYCQQYYDWPPLTFGGGTKVEIK
2.51 nM	493000 M⁻¹ s⁻¹		40579p1.E5 scFv-Fc (scFv, V domains shown) VH: EVQLLESGGGLVQPGGSLRLSCAASGFTFSDDWMTWVRQAPGKGLEWVSAINWNGNSTHYADSVKGRFTVSRDNSKNTLYLQMNSLRAEDTAVYYCAKSRTTYYSSMDVWGQGTTVTVSS VL: EIVLTQSPGTLSLSPGERATLSCRASQTVGSYLAWYQQKPGQAPRLLIYGASSRATGIPARFSGSGSGTDFTLTISSLQSEDFAVYYCQHYYDWPPYSFGGGTKVEIK
1.41 nM	752000 M⁻¹ s⁻¹		40511p1.1.H10 scFv-Fc (scFv, V domains shown) VH: DVQLVESGGGVVRPGESLRLSCAASGFTFSNYAMNWVRQAPGEGLEWVSRINYKGYNITYYADSVKGRFTISRDNSKNTLYLQMNSLRAEDTAVYYCAKSGSNSNNFFDYWGLGTLVTVSS VL: EIVLTQSPGNLSLSPGERATLSCRASQSVGSQLGWYQQKPGQAPRLLIYGASTRATGIPDRFSGSGSGTEFALTISSLQSEDFAVYYCQQYYDWPPLTFGGGTKVEIK
3.1 nM	622000 M⁻¹ s⁻¹		40579p1.B8 scFv-Fc (scFv, V domains shown) VH: EVQLLESGGGLVQPGGSLRLSCAASGFTFSDYYMSWVRQAPGKGLEWVSGISMSSTIYYADSVKGRFTISRDNSKNTLYLQMNSLRAEDTAVYYCARHRSPYQYRSMDVWGQGTTVTVSS VL: EIVLTQSPGTLSLSPGERATLSCRASQSVNSKLAWYQQKPGQPPSLLIYDASRRATGIPDRFSGSGSGTEFTLTISSLQSEDFAVYYCQQYNNWPPLTFGGGTKVEIK
15 nM	645000 M⁻¹ s⁻¹	0.01 s⁻¹	40511p1.2.G10 scFv-Fc (scFv, V domains shown, Tested as scFv-Fc supernatant) VH: DVQLVESGGGVVRPGESLRLSCAASGFTFSNYAMNWVRQAPGEGLEWVSRINYKGYNITYYADSVKGRFTISRDNSKNTLYLQMNSLRAEDTAVYYCAKSGSNSNNFFDYWGLGTLVTVSS VL: EIVLTQSPGTLSLSPGERATLSCRASQTVGSKLAWYQQKPGQAPRLLIYGASTRATDIPDRFSGSGSGTEFTLTISSLQSEDFAVYYCQQYINWPPLSFGGGTKVEIK
9.11 nM	452000 M⁻¹ s⁻¹		40579p1.C2 scFv-Fc (scFv, V domains shown, Tested as scFv-Fc supernatant) VH: EVQLLESGGDLVQPGGSLRLSCAASGFNFSSYWMSWVRQAPGKGLEWVSGISISYGGNAYYADSVKGRFTVSRDNSKNTLYLQMNSLRAEDTAVYYCGRDRSPYQYRSMDVWGQGTTVTVSS VL: EIVLTQSPATLSVSPGERATFSCRASQTIGNKLAWYQQKPGQAPRLLIFSASTRATDIPDRFSGSGSGTDFTLTISSLQSEDFAVYYCQQYNNWPPLTFGGGTKVEIK
0.639 nM	364000 M⁻¹ s⁻¹		40511p1.2.A8 scFv-Fc (scFv, V domains shown) VH: not shown VL: EIVLTQSPATLSVSPGERATFSCRASQNVRSYLAWYQQKPGQAPRLLIFNTVTRATGIPDRFSGSGSGTDFTLTISSLEPEDFAVYYCQQYYDWPPLTFGGGTKVEIK

Source: patent US20260008852A1 (CRYSTAL BIOSCIENCE, published 2026)
